Results from publication PMC4560099.

Biological target: 14-3-3ε (UniProt P62259)
Assay: GST-14-3-3ε pull-down from neuronal lysate
Conditions: reference: wild-type CRTC1270

“CRTC1 (CRTC1270 reporter) 1-270 (from UniProt Q68ED7) S64A” was tested, and the “binding against the reference” value (sites S64) was “weaker”.

“CRTC1 (CRTC1270 reporter) 1-270 (from UniProt Q68ED7) S64A/S151A/S245A” was tested, and the “binding against the reference” value (sites S64,S151,S245) was “lost”.

With “CRTC1 (CRTC1270 reporter) 1-270 (from UniProt Q68ED7) S151A” the “binding against the reference” value (sites S151) was “weaker”.

For “CRTC1 (CRTC1270 reporter) 1-270 (from UniProt Q68ED7) S245A”, the “binding against the reference” value (sites S245) was “weaker”.
